Patent publication US20150353933, “APTAMER AGAINST MIDKINE AND APPLICATIONS THEREOF” (RIBOMIC INC., published 2015)

T1: midkine (AP-MK) (Homo sapiens, UniProt P21741 P21741:23-143)
T1 chain: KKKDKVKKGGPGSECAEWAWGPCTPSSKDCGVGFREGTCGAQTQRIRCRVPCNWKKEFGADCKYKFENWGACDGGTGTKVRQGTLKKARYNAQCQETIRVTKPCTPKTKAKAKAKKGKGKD

T2: midkine (MK) (Homo sapiens, UniProt P21741 P21741:21-143)
T2 sequence: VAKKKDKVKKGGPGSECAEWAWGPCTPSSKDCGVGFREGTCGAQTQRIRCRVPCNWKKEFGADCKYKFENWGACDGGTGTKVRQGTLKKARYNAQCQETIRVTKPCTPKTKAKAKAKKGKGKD

B1: SEQ ID NO: 7-4 (ssRNA)
RNA: GCCAUCGCAAUGGUGAGUGGUUUAUCCGCCUGCGCAUGGC
modifications: 5' 40PEG2ts; 3' idT; 2'-OMe at C2,C3,C40 and all purines except G15,A16,G17,A24 (2'-OH); 2'-F at all other pyrimidines
B2: SEQ ID NO: 7-3 (ssRNA)
RNA: B1 RNA
modifications: 5' 40PEG2ts; 3' idT; 2'-OMe at 1-13,19,20,23,28,30-40; 2'-F at U14,U18,U21,U22,U25,C26,C27,C29; 2'-OH at G15,A16,G17,A24
B3: SEQ ID NO: 10 (ssRNA)
RNA: GCUCGCAAUGGUGAGUGGUUUAUCCGCCUGCGCAGC
modifications: 3' idT; 2'-OMe at 1-11,17,18,21,26,28-36; 2'-F at U12,U16,U19,U20,U23,C24,C25,C27; 2'-OH at G13,A14,G15,A22
B4: SEQ ID NO: 12 (ssRNA)
RNA: CGCAAUGGUGAGUGGUUUAUCCGCCUGCG
modifications: 3' idT; 2'-OMe at 1-8,14,15,18,23,25-29; 2'-F at U9,U13,U16,U17,U20,C21,C22,C24; 2'-OH at G10,A11,G12,A19
B5: SEQ ID NO: 9 (mixed)
RNA: GCCAUCGCAAUGGUGAGUGGUUUAUCCGCCUGCGCAUGGCAAAAAAAAAAAAAAAA
modifications: 2'-OMe at 1-3 and 38-40; 2'-F at all other pyrimidines; 3' 16-nt poly dA (DNA)
B6: SEQ ID NO: 9-2 (mixed)
RNA: B5 RNA
modifications: 2'-OMe at C2,C3,C40 and RNA purines except A16,G17,A24 (2'-OH); 2'-F at all other pyrimidines; 3' 16-nt poly dA (DNA)
B7: SEQ ID NO: 9-5 (mixed)
RNA: B5 RNA
modifications: 2'-OMe at C2,C3,C40 and RNA purines except G15,A16,G17 (2'-OH); 2'-F at all other pyrimidines; 3' 16-nt poly dA (DNA)
B8: SEQ ID NO: 9-4 (mixed)
RNA: B5 RNA
modifications: 2'-OMe at C2,C3,C40 and RNA purines except G15,A16,A24 (2'-OH); 2'-F at all other pyrimidines; 3' 16-nt poly dA (DNA)
B9: SEQ ID NO: 9-3 (mixed)
RNA: B5 RNA
modifications: 2'-OMe at C2,C3,C40 and RNA purines except G15,G17,A24 (2'-OH); 2'-F at all other pyrimidines; 3' 16-nt poly dA (DNA)
B10: SEQ ID NO: 9-1 (mixed)
RNA: B5 RNA
modifications: 2'-OMe at C2,C3,C40 and RNA purines except G15,A16,G17,A24 (2'-OH); 2'-F at all other pyrimidines; 3' 16-nt poly dA (DNA)
B11: SEQ ID NO: 7-7 (ssRNA)
RNA: B1 RNA
modifications: 3' idT; 2'-OMe at 1-13,16,19,20,23,27,28,30-40; 2'-F at U14,U18,U21,U22,U25,C26,C29; 2'-OH at G15,G17,A24
B12: SEQ ID NO: 7-6 (ssRNA)
RNA: B1 RNA
modifications: 3' idT; 2'-OMe at 1-14,16,19,20,23,28,30-40; 2'-F at U18,U21,U22,U25,C26,C27,C29; 2'-OH at G15,G17,A24
B13: SEQ ID NO: 7-8 (ssRNA)
RNA: B1 RNA
modifications: 3' idT; 2'-OMe at 1-13,16,19,20,23,28-40; 2'-F at U14,U18,U21,U22,U25,C26,C27; 2'-OH at G15,G17,A24
B14: SEQ ID NO: 7-5 (ssRNA)
RNA: B1 RNA
modifications: 3' idT; 2'-OMe at 1-13,16,19,20,23,28,30-40; 2'-F at U14,U18,U21,U22,U25,C26,C27,C29; 2'-OH at G15,G17,A24

Molecular target: T1, midkine (AP-MK)
Assay: inhibition; AP-MK binding to TNB1 cells
Conditions: tags: alkaline phosphatase fusion, APtag-5 vector (GenHunter), 293T culture supernatant
Description: (§1) Using the above-mentioned AP-MK, a binding inhibitory experiment relative to TNB1 cell, which is a human neuroblastoma cell, was performed. TNB1 cells were seeded at 1×10⁵ cells/well on a 6-well plate coated with collagen I. The next day, the cells were washed with 1 mL of HBHA (HBSS+0.5 mg/mL BSA+20 mM HEPES pH 7.0), 1 U/mL AP or AP-MK, and further, the aptamer shown in SEQ ID NO: 7-1 at a final concentration of 100 nM were added and the mixture was maintained at room temperature for 90 min. After washing 5 times with 1 mL of HBHA, 200 μL of Cell Lysis Buffer (manufactured by GenHunter) was added and the mixture was stirred for 5 min. The cells were scraped with a Scraper and placed in an Eppendorf tube, vortexed for 10 sec and centrifuged at 15000 rpm for 2 min. The supernatant was recovered, and heated at 65° C. for 10 min to inactivate endogenous AP. Using 50 μL, color development was performed in the same manner as above (15 min) and the activity of AP was calculated.
(§2) An altered form of SEQ ID NO: 7-1 was produced, and AP-MK binding inhibitory experiment was performed using HepG2 and TNB1 cells and in the same manner as above. The sequences of the altered forms actually produced are shown below. While Poly dA for BIAcore measurement is added to the 3′-terminus of the aptamers shown in SEQ ID NO: 9 and SEQ ID NO: 9-1-5, an influence on the activity is not expected. The 50% inhibitory concentration (IC₅₀) was determined from the concentrations at two, above and below points sandwiching the 50% inhibitory activity (Table 2).

| Binder | IC50 |
| --- | --- |
| GCCAUCGCAAUGGUGAGUGGUUUAUCCGCCUGCGCAUGGC (ssRNA, 2'-OMe at 1-3 and 38-40; 2'-F at all other pyrimidines; other purines 2'-OH) [SEQ ID NO: 7-1] | 18 nM |
| B1 | 18 nM |
| B2 | 11 nM |
| GCCAUCGCAAUGGUGAGUGGUUUAUCCGCCUGCGCAUGGC (ssRNA, 5' 40PEG2ts; 3' idT; 2'-OMe at 1-3 and 38-40; 2'-F at all other pyrimidines) [SEQ ID NO: 7-2] | 26 nM |

Molecular target: T1, midkine (AP-MK)
Assay: inhibition; AP-MK binding to HepG2 cells
Conditions: tags: alkaline phosphatase fusion, APtag-5 vector (GenHunter), 293T culture supernatant
Description: as §1, §2

| Binder | IC50 |
| --- | --- |
| B3 | < 2 nM |
| B4 | < 2 nM |
| B5 | 3.3 nM |
| B6 | 13 nM |
| B7 | 19 nM |
| B8 | 4.1 nM |
| B9 | 3 nM |
| B10 | 1.6 nM |
| GCCAUCGCAAUGGUGAGUGGUUUAUCCGCCUGCGCAUGGC (ssRNA, 2'-OMe at 1-3 and 38-40; 2'-F at all other pyrimidines; other purines 2'-OH) [SEQ ID NO: 7-1] | 6 nM |
| B11 | < 2 nM |
| B1 | 3.6 nM |
| B2 | 1.7 nM |
| B12 | < 2 nM |
| GCCAUCGCAAUGGUGAGUGGUUUAUCCGCCUGCGCAUGGC (ssRNA, 5' 40PEG2ts; 3' idT; 2'-OMe at 1-3 and 38-40; 2'-F at all other pyrimidines) [SEQ ID NO: 7-2] | 4.9 nM |
| B13 | < 2 nM |
| B14 | < 2 nM |

Molecular target: T1, midkine (AP-MK)
Assay: inhibition; AP-MK binding to HepG2, 500 nM aptamer
Conditions: tags: alkaline phosphatase fusion, APtag-5 vector (GenHunter), 293T culture supernatant
Description: as §1
An experiment similar to the above was performed using HepG2 cells which are human liver cancer-derived cells. It is already known that MK is deeply involved in the growth and inhibition of apoptosis of HepG2 cells (Ohuchida et al., Cancer 100, 2430-2436, 2004; Dai et al., World J. Gastroenterol. 15, 1966-1972, 2009). When the aptamer was added to the system, the binding of AP-MK and HepG2 was inhibited (Table 1).

| Binder | activity |
| --- | --- |
| GCCAUCGCAAUGGUGAGUGGUUUAUCCGCCUGCGCAUGGC (ssRNA, 2'-OMe at 1-3 and 38-40; 2'-F at all other pyrimidines; other purines 2'-OH) [SEQ ID NO: 7-1] | 93 % inhibition |

Molecular target: T2, midkine (MK)
Assay: SPR; confirmed MK binding, as in Example 3
Conditions: tags: produced in yeast
Description: The binding activities of the oligonucleotides shown by SEQ ID NO:1 to 6 obtained in Examples 1 and 2 for MK were evaluated by a surface plasmon resonance method. The measurements were performed using BIAcore2000, manufactured by BIAcore. The sensor chip used was the SA chip, which had streptavidin immobilized thereon. Bound thereto was about 1000 RU of a 16-nucleotide Poly dT with biotin bound to the 5′ end thereof. […] 70 μL of MK for analyte, prepared at 0.5 μM, was injected.
Those aptamers were evaluated by the surface plasmon resonance method in the same manner as in Example 3, and they were confirmed to have MK binding activity.

| Binder | binding result |
| --- | --- |
| GCCAUCGCAAUGGUGAGUGGUUUAUCCGCCUGCGCAUGGC (ssRNA, 2'-OMe at 1-3 and 38-40; 2'-F at all other pyrimidines; other purines 2'-OH) [SEQ ID NO: 7-1] | binds |
